± gives the half width of the 95% confidence interval.
Test: folding stability dG unfold from chymotrypsin proteolysis; higher = more stable
Outline: (§1)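 Unfolding free energy was derived, per protease or combined, against a sequence-predicted unfolded-state K50 and a shared folded-state K50, starting from K50 inferred by Bayesian fitting of sequencing counts. Digestion with trypsin and chymotrypsin was carried out on designed mini-proteins under 80 residues without cysteine in a PA-tagged cDNA display construct. Only designs with AlphaFold2 dimer inter-PAE above 15 were kept.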

| Sequence | folding stability dG unfold [kcal/mol] |
| --- | --- |
| SAGGSAGGSAGMPIKTLKTTLVSVEKEPPGEGSYITTKSVTEFPDGSKSVTTTTVPASLLSAGGSAGGSAGG [r17_268_JUSTAS] | -0.228 ± 0.27 |
| SAGGKAKIVEIKYNEETGTVTIKIKNEDGEEYEISIKLPPGAKIEIDEDGNITIKDIPAEQIEVRKVSAGGS [r16_515_TrROS_Hall] | 1.68 ± 0.056 |
| SAGGGASLNSIKISKIPGLNKYKITLPTSAAPGTEVTITINNPKGKETLTFTLPVKPLPGNTVVLLLSAGGS [r8_195_JUSTAS] | 1.74 ± 0.059 |
| SAGGSPPDNFKMEPIPLRFPNGWKITVMVMRNPDDGRPYVSVEIEPPNDGKEVKFMMPADDLKDFISAGGSA [r2_366_TrROS] | 1.64 ± 0.23 |
| SAGGSAGGSAGGSSITIEEEGGKLRITVTNENGEKSEFEFPPGAKITLPEGVKLELEKESAGGSAGGSAGGS [r4_447_TrROS_Hall] | 1.13 ± 0.019 |
| SAGGSEEERKRILEELKKKNPEKDVEVKVERKTYKVPAGTVVTLPDGTKIVAPADTTVEIYKVEIIKSAGGS [r16_357_JUSTAS] | 2.14 ± 0.037 |
| SAGGSANEILEKLGYPEENIVERKKVFKLPNGTELYEYVIPKTENGVTATILVEKTPKGVKIKVLPSAGGSA [r15_813_JUSTAS] | 0.414 ± 0.25 |
| SMKIEPHPDGTVTFTIPAEFPDIPAEEIAALIEKALPPGVRLGEEITVERDPETGEVRVTAKVEVPPDAVSA [r9_1011_TrMRF] | 2.81 ± 0.073 |
| SAGGSSPAARRLAKRIAKLMMKKHPPGEKRTVEIELPDGVEIKATFNNNGNIDDIEIRSPDGEPIISAGGSA [r2_84_TrROS] | 0.482 ± 0.4 |
| SAGGSAGGSAGGSGNYVPGPSLVTFYDPKTNKWTVVKSAPEEAVKLKASLPENVAKISLSAGGSAGGSAGGS [r4_282_JUSTAS] | -0.0321 ± 0.27 |
| SAGGSAGGSAGGKGKKVTIEIHFFFKSPQEMKHWANTLAKELPGLDVEIKVEWIPLEDMKSAGGSAGGSAGG [r7_465_TrROS] | 3.26 ± 0.14 |
| SAGGSAGGSAKIKIKVKPGEKVRIYNKKTKKEIAEVEVVEVKEGKIVVKLKNGKLYEIEIEPSAGGSAGGSA [r18_363_TrROS_Hall] | 2.36 ± 0.06 |
| SADPVYYKITITLYIKGDSSSTKTFEIVVPAGDVEKAKEEAIKKIKEETGKPILKVETEVTKVPPEELLSAG [r14_104_JUSTAS] | 4.35 ± 0.13 |
| SAGGSAGGSMDGTVRQPPGGVWEVRARPPAVTPVLVTVVLVTVDADGNLILNPVAGYTHPDELSAGGSAGGS [r12_1027_TrMRF] | 1.11 ± 0.074 |
| SAGGELENLTVEELKALLEELFPDVEVKVTVEKLPEGYYRITVEIRVRLPNGETRRFELELVIRLEDSAGGS [r16_564_TrROS_Hall] | 5.36 ± 0.25 |
| SAGGSAGGSAMKTITLKDEKGNPLTAEVEKLPNGTIKITITKPGGEKTTYTIPPGEKITLPVSAGGSAGGSA [r18_115_JUSTAS] | 2.98 ± 0.05 |
| SAGGSAGGSAGGMKKYKITVYDEKTGEKHTIEIEMSEEELEELAKKLAEKHNVKVRIEKVSAGGSAGGSAGG [r7_562_TrROS_Hall] | 4.27 ± 0.052 |
| SAGGSAGGSMIVETEVEEGDGSAVTKTFYPDSVTTTVNTPDEVTVEKTFPDGTVETTTVPLSPSAGGSAGGS [r12_507_JUSTAS] | 0.967 ± 0.031 |
| SAGGSAMPKYVISGIYRLPDKTLFFDYVIPPGLAENPERVKELAEEIRELLEQLGYPAVDFKIEPVSAGGSA [r15_781_TrMRF] | 2.09 ± 0.065 |
| KKITIIIPSPDGYWVVIKIEWPNGRPINVFFRSPEELLNEIQRQLGMYPENFEITDIEVMPPDDLKEAMDNS [r1_119_TrROS] | 3.39 ± 0.12 |
| SSPLDPAGRFTIEVVFTTSADGTLTATFTITAPGGVPLKTLTRSFTNPSPGKAAAVEEAEALKAEIEAAASA [r9_739_JUSTAS] | 2.35 ± 0.047 |

Test: folding stability dG unfold (combined trypsin and chymotrypsin); higher = more stable
Outline: as §1

| Sequence | folding stability dG unfold [kcal/mol] |
| --- | --- |
| SAGAAPVGARLVKVEPLPGDGPFVLVEVTPPDGKPGFILVPWEFFESGYLKNATAADIAKRFPFAKPASAGG [r19_74_TrMRF] | 1.49 ± 0.056 |
| SAGGMPEEELTLIVRIKVYNPETGEEKEITLTITVKSEEELEKAKKLVEELEEKLKELGIKKVEIEILSAGG [r13_360_TrROS_Hall] | 3.2 ± 0.26 |
| SASMGPEALVERIAEEIRKELGVDAGYKAPVEVRRPPDLVVVDAKLTVYKPDGNPLGEKTVRVVLPPLLSAG [r14_708_JUSTAS] | 0.129 ± 0.29 |
| SAGGSAGGSMVRVTRLPDGTYRIEIELPGESLEREARGPEEVEALAEEIEKETGVPVEIETLESAGGSAGGS [r12_783_JUSTAS] | 0.945 ± 0.14 |
| SAGGSAGGSAGGGNMTITVMIPIEIPVFKYDGGKPEFEPFPIYIMVEVTVPEGAPLEEFSAGGSAGGSAGGS [r10_633_TrROS] | 1.79 ± 0.068 |
| SAGGSAGGSAGMKITIDGKVAEIEEVEVDGKLYYFIRVEGRLYVFDVETGEIREISPEDLSAGGSAGGSAGG [r11_9_TrROS_Hall] | 3.91 ± 0.054 |
| SAGGSAGGSAGMRIRAEVVEISPPGAVIVLRYEIEFPLPDDEPVRLEFDAVLYIPVPPEASAGGSAGGSAGG [r11_689_TrMRF] | 3.69 ± 0.13 |
| SAGGSAGGSAKIKPGEKVEITLKDGSKVIIEKKEDGKYLARIIDKKTNEVKTVPLDKIKLVSAGGSAGGSAG [r3_213_TrROS_Hall] | 1.13 ± 0.14 |
| SAGGSAMVVRITTKDGKKIEITVKSVEELLEALKELGVEEVKLEKLPDGKELKLTVTLKDGKIEILSAGGSA [r15_632_TrROS_Hall] | 2.92 ± 0.054 |
| SGPTSTVDPEFPGSTPGGTVTPSVVRVPVPPDEVERVIEEIRERAGVPGLKVERVERTADGVVLIEVSLPSA [r9_1101_JUSTAS] | 0.882 ± 0.066 |
| SAGGNIRIWFPGREIPIGGTVEDIKANIRKWLGRPIPEELIEQIDKGKTVSEIVDWLRKRGFPIRIWSAGGS [r16_601_TrROS] | 1.87 ± 0.11 |
| SAGGSAGGSAGKKIKVRIKVKDPETNEYYEIEIEAETEEEALEALKKLFPNVKKVEIVPASAGGSAGGSAGG [r11_25_TrROS_Hall] | 3.18 ± 0.15 |
| SAMVLDVSELTKKAIEELKKKNPKPLSPEEIVELGKKVAAEVAEKLGIPLKEIKVEPTGKHPKAVAELPSAG [r14_147_TrMRF] | 0.391 ± 0.52 |
| SAGMGLVGRTKDGKWIPAADLTEEQLKDMELDLGEPLPPVVVKVEVEWKLSPEDKLEVKLKVEVFVEGSAGG [r19_232_TrMRF] | 2.17 ± 0.2 |
| SAGVIPESLIEKVETEEYPGGITRSTYTYPDGVTVTVEETKVPGTDGITRKITVYPPTNTTTETTVTDPSAG [r5_802_JUSTAS] | 0.44 ± 0.12 |
| SAGGSAGGSAGKNMVEIEMMFVLPDGWFIKTSLRINPDKPGRIHEVEIEIRKIPPNDEQISAGGSAGGSAGG [r17_299_TrROS] | 4.06 ± 0.19 |
| SAGGSMSPEEKARKLAEELRKKLPPGAKVRIKVEVDGKTYEIEIEPGEEIEFPPGEKVKIVEIEVESAGGSA [r2_391_TrROS_Hall] | 2.98 ± 0.3 |
| SAGGIWIKVPDGGWVRIQIEHPGNGRPREETIPGGDIKDLIKSLSSSPDFPNYKVKIEVWDGGKPKPISAGG [r13_914_TrROS] | 1.46 ± 0.14 |
| SAPNYPFFVRIKLPGNGQEVEFPIESPEEADEMLDNFANHPHIKDIDIYRPDGEEVEIEIKIPPEALKQSAG [r14_747_TrROS] | 0.0333 ± 0.26 |
| SAGGSAGLAEAILREAASAGIPLENVRIVDVRAFVTPDAVVFRARIEYRLPNSTSLAYADAVVPAPSAGGSA [r15_863_TrMRF] | 1.69 ± 0.073 |
| SMKVKTYTFKIKVDGKEIEVTVEELEDGELLVTIKIKENGKEKTIVVSREELEELLKALLPPGAEIEKVESA [r9_384_TrROS_Hall] | 3.33 ± 0.099 |

| Sequence | folding stability dG unfold [kcal/mol] |
| --- | --- |
| SAGGSAGGSAGMPIKTLKTTLVSVEKEPPGEGSYITTKSVTEFPDGSKSVTTTTVPASLLSAGGSAGGSAGG [r17_268_JUSTAS] | -0.576 ± 0.44 |
| SAGGKAKIVEIKYNEETGTVTIKIKNEDGEEYEISIKLPPGAKIEIDEDGNITIKDIPAEQIEVRKVSAGGS [r16_515_TrROS_Hall] | 1.46 ± 0.12 |
| SAGGGASLNSIKISKIPGLNKYKITLPTSAAPGTEVTITINNPKGKETLTFTLPVKPLPGNTVVLLLSAGGS [r8_195_JUSTAS] | 1.74 ± 0.066 |
| SAGGSPPDNFKMEPIPLRFPNGWKITVMVMRNPDDGRPYVSVEIEPPNDGKEVKFMMPADDLKDFISAGGSA [r2_366_TrROS] | 1.66 ± 0.19 |
| SAGGSAGGSAGGSSITIEEEGGKLRITVTNENGEKSEFEFPPGAKITLPEGVKLELEKESAGGSAGGSAGGS [r4_447_TrROS_Hall] | 0.84 ± 0.073 |
| SAGGSEEERKRILEELKKKNPEKDVEVKVERKTYKVPAGTVVTLPDGTKIVAPADTTVEIYKVEIIKSAGGS [r16_357_JUSTAS] | 1.95 ± 0.2 |
| SAGGSANEILEKLGYPEENIVERKKVFKLPNGTELYEYVIPKTENGVTATILVEKTPKGVKIKVLPSAGGSA [r15_813_JUSTAS] | 0.318 ± 0.22 |
| SMKIEPHPDGTVTFTIPAEFPDIPAEEIAALIEKALPPGVRLGEEITVERDPETGEVRVTAKVEVPPDAVSA [r9_1011_TrMRF] | 2.74 ± 0.12 |
| SAGGSSPAARRLAKRIAKLMMKKHPPGEKRTVEIELPDGVEIKATFNNNGNIDDIEIRSPDGEPIISAGGSA [r2_84_TrROS] | 0.644 ± 0.36 |
| SAGGSAGGSAGGSGNYVPGPSLVTFYDPKTNKWTVVKSAPEEAVKLKASLPENVAKISLSAGGSAGGSAGGS [r4_282_JUSTAS] | -0.179 ± 0.32 |
| SAGGSAGGSAGGKGKKVTIEIHFFFKSPQEMKHWANTLAKELPGLDVEIKVEWIPLEDMKSAGGSAGGSAGG [r7_465_TrROS] | 2.75 ± 0.29 |
| SAGGSAGGSAKIKIKVKPGEKVRIYNKKTKKEIAEVEVVEVKEGKIVVKLKNGKLYEIEIEPSAGGSAGGSA [r18_363_TrROS_Hall] | 2.18 ± 0.052 |
| SADPVYYKITITLYIKGDSSSTKTFEIVVPAGDVEKAKEEAIKKIKEETGKPILKVETEVTKVPPEELLSAG [r14_104_JUSTAS] | 4.35 ± 0.17 |
| SAGGSAGGSMDGTVRQPPGGVWEVRARPPAVTPVLVTVVLVTVDADGNLILNPVAGYTHPDELSAGGSAGGS [r12_1027_TrMRF] | 0.848 ± 0.077 |
| SAGGELENLTVEELKALLEELFPDVEVKVTVEKLPEGYYRITVEIRVRLPNGETRRFELELVIRLEDSAGGS [r16_564_TrROS_Hall] | 5.22 ± 0.28 |
| SAGGSAGGSAMKTITLKDEKGNPLTAEVEKLPNGTIKITITKPGGEKTTYTIPPGEKITLPVSAGGSAGGSA [r18_115_JUSTAS] | 2.77 ± 0.14 |
| SAGGSAGGSAGGMKKYKITVYDEKTGEKHTIEIEMSEEELEELAKKLAEKHNVKVRIEKVSAGGSAGGSAGG [r7_562_TrROS_Hall] | 3.91 ± 0.062 |
| SAGGSAGGSMIVETEVEEGDGSAVTKTFYPDSVTTTVNTPDEVTVEKTFPDGTVETTTVPLSPSAGGSAGGS [r12_507_JUSTAS] | 0.896 ± 0.086 |
| SAGGSAMPKYVISGIYRLPDKTLFFDYVIPPGLAENPERVKELAEEIRELLEQLGYPAVDFKIEPVSAGGSA [r15_781_TrMRF] | 1.99 ± 0.098 |
| KKITIIIPSPDGYWVVIKIEWPNGRPINVFFRSPEELLNEIQRQLGMYPENFEITDIEVMPPDDLKEAMDNS [r1_119_TrROS] | 3.22 ± 0.11 |
| SSPLDPAGRFTIEVVFTTSADGTLTATFTITAPGGVPLKTLTRSFTNPSPGKAAAVEEAEALKAEIEAAASA [r9_739_JUSTAS] | 1.97 ± 0.064 |

Reference: the supplement of paper PMC12764529
